The text below walks through data of patent US20210079054A1 (published 2021).

Test [1] concerns the target recombinant canine IL-31 protein with C-terminal 6-His tag, secreted from Expi293 cells (canine). The test can be described thus: cell-based or functional assay.
Test [2] addresses T1, recombinant human IL-31 protein (UniProt Q6EBC2 24-164).
T1 chain: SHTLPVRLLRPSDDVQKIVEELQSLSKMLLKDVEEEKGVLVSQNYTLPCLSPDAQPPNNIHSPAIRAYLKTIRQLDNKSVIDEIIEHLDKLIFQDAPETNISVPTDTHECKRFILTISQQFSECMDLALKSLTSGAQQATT
The test can be described thus: inhibition of IL-31/IL-31Rα interaction (ELISA); polyclonal IgG. (ELISA stands for enzyme-linked immunosorbent assay.)

Sequence of recombinant canine IL-31 protein with C-terminal 6-His tag, secreted from Expi293 cells (canine) (chain, as listed by the source, form in doubt): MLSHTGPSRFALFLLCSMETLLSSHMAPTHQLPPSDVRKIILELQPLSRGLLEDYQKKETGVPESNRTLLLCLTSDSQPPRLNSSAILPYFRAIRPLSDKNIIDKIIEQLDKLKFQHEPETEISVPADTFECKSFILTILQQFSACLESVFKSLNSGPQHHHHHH

B1: Cytopoint (anti-IL-31 mAb), monoclonal antibody to canine IL-31 (antibody, INN chains, looked up, V domains shown)
VH: EVQLVESGGDLVKPGGSLRLSCVASGFTFSNYGMSWVRQAPGKGLQWVATISYGGSYTYYPDNIKGRFTISRDNAKNTLYLQMNSLRAEDTAMYYCVRGYGYDTMDYWGQGTLVTVSS
VL: EIVMTQSPASLSLSQEEKVTITCKASQSVSFAGTGLMHWYQQKPGQAPKLLIYRASNLEAGVPSRFSGSGSGTDFSFTISSLEPEDVAVYYCQQSREYPWTFGQGTKLEIK
B1: in test [1], the IC50 of signaling inhibition (canine IL-31 induced pSTAT in DH82 monocytes) was 3.21 µg/mL and the inhibition of IL-31-induced pSTAT3 signaling phosphorylation was in the range of 50 to 75%.

B2: SEQ ID NO: 99 (protein)
chain: ISITEIKGVIVHRIETILFKKKKAIRAYLKTIRQLDNKSVIDEIIEHLDKLIFQDAPETNISVPTDTHECKRFILTISQQFSESMDL
Consider B2, for which the IC50 (in general, the concentration needed to halve the response being measured) in test [2] was determined as 1.23 µg/mL.

B3: SEQ ID NO: 87 (protein)
chain: ISITEIKGVIVHRIETILFKKKKLDNKSVIDEIIEHLDKLIFQDAPETNISVPTDTHECKRFILTISQQFS
For the molecule B3, in test [2], the IC50 came to 0.277 µg/mL.
